Changes are numbered by the printed parent chain.
T1: single chain CD3εγ heterodimer (UniProt P07766 23-118; P09693 23-103)
T1 chain: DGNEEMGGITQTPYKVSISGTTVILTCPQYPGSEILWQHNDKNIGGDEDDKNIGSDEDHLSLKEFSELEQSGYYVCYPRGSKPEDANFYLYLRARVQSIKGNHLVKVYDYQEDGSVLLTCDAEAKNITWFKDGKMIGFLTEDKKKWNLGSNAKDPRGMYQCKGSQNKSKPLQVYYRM

B1: Unmasked v4 TDB (bispecific antibody, V domains shown)
VH 1: EVQLVQSGAEVKKPGASVKVSCKASGFTFTSYYIHWVRQAPGQGLEWIGWIYPENDNTKYNEKFKDRVTITADTSTSTAYLELSSLRSEDTAVYYCARDGYSRYYFDYWGQGTLVTVSS
VL 1: DIVMTQSPDSLAVSLGERATINCKSSQSLLNSRTRKNYLAWYQQKPGQSPKLLIYWTSTRKSGVPDRFSGSGSGTDFTLTISSLQAEDVAVYYCKASFILRTFGQGTKVEIK
VH 2: EVQLVESGGGLVQPGGSLRLSCAASGYTFTSYNMHWVRQAPGKGLEWVGAIYPGNGDTSYNQKFKGRFTISVDKSKNTLYLQMNSLRAEDTAVYYCARVVYYSNSYWYFDVWGQGTLVTVSS
VL 2: DIQMTQSPSSLSASVGDRVTITCRASSSVSYMHWYQQKPGKAPKPLIYAPSNLASGVPSRFSGSGSGTDFTLTISSLQPEDFATYYCQQWSFNPPTFGQGTKVEIK
B2: Unmasked v3 TDB (bispecific antibody, V domains shown)
VH 1: B1 VH 1
VL 1: B1 VL 1 with A96Q, I99A
VH 2: B1 VH 2
VL 2: B1 VL 2
B3: Unmasked v5 TDB (bispecific antibody, V domains shown)
VH 1: B1 VH 1
VL 1: B1 VL 1 with A96Q, F98A
VH 2: B1 VH 2
VL 2: B1 VL 2
B4: Unmasked v1 TDB (bispecific antibody, V domains shown)
VH 1: B1 VH 1
VL 1: B1 VL 1 with A96Q
VH 2: B1 VH 2
VL 2: B1 VL 2

Target: T1, single chain CD3εγ heterodimer
Test: Biacore

Kd | Binder
119 nM | B1
3.5 nM | B2
18 nM | B3
1.2 nM | B4

Target: T1, single chain CD3εγ heterodimer
Test: Biacore
Remark: another data set of the same source

Kd | Binder
119 nM | B1
3.5 nM | B2
18 nM | B3
1.2 nM | B4
